In article PMC10856354 (International Journal of Molecular Sciences, 2024):
“And” between values parts separate entries of the source, which are not always exact repeats. Identical values can stand only once. Where a SMILES comes first, the peptide text is derived from it. Bridges are numbered along the chain shown (N, C = ends). [ ]: non-standard residue; d: D form. The star is where a group is joined. DOTA = O=C(O)CN1CCN(CC(=O)O)CCN(CC(=O)*)CCN(CC(=O)O)CC1

How the values were obtained:
[1] = mice, blood collected 5 min pi, radio-HPLC
Description: At 5 min pi blood (~1mL) was collected from the heart of mice in a prechilled insulin syringe and swiftly placed in an ice-cold polypropylene tube containing EDTA on ice. Blood samples were centrifuged at 2000× g at 4 °C for 10 min. […] The mixture was centrifuged for 10 min at 15,000× g at 4 °C. […] An RP18 Symmetry Shield cartridge column (5 μm, 3.9 mm × 20 mm, Waters, Vienna, Austria) was eluted at a 1 mL/min flow rate with the following gradient: 100%A/0%B to 60%A/40%B in 40 min, whereby A = 0.1% aqueous TFA and B = MeCN (system 3).

[2] = in vivo; conditions: male, SCID, mouse, iv, total radioactivity
Description: (§1) For biodistribution experiments, male SCID mice of 7 weeks of age (15–20 g) on arrival day (NCSR ‘‘Demokritos’’ Animal House, Athens, Greece) were subcutaneously injected in their flanks with a suspension of AR4-2J cells (150 μL inocula of ~1 × 10^7 cells in PBS). The animals were kept under aseptic conditions for 12 days until well-palpable tumors were grown at the inoculation site. […] In an additional group, animals were co-injected with excess TATE (100 nmol) together with the radioligand (blocked animals) and were sacrificed at 4 h pi. Blood was immediately collected, and the organs of interest were excised and weighed. Sample radioactivity was measured in the γ-counter using proper standards of the injected activity. Data were calculated as %IA/g with the aid of standard solutions and represent mean values ± sd. For comparisons, a Two-way ANOVA with Tukey’s post hoc analysis was applied (PRISM^TM GraphPad—6 Software, San Diego, CA, USA). p values < 0.05 were considered statistically significant.

[3] = tested on: AR4-2J tumor-bearing SCID mice (rSST2R-positive); assay: in vivo; conditions: AR4-2J mice, 4 h pi, block: co-injection of 100 nmol TATE; mean ± sd, n = 4
Description: as §1

[4] = in vivo; conditions: male, SCID, mouse, iv, total radioactivity; remark: listed apart in the source
Description: (§2) For the second biodistribution experiments, male SCID mice of 7 weeks of age (15–20 g) on arrival day (NCSR ‘‘Demokritos’’ Animal House, Athens, Greece) were subcutaneously injected in their flanks with a suspension of HEK293-hSST3R cells (150 μL inocula of ~3 × 10^7 cells in PBS). The animals were kept under aseptic conditions for 3–4 weeks until well-palpable tumors were grown at the inoculation site. […] Mice were sacrificed at 4 h pi, and biodistribution analyses were conducted, as described above.

[5] = tested on: HEK293-hSST3R tumor-bearing SCID mice; assay: in vivo; conditions: HEK293-hSST3R mice, 4 h pi, block: co-injection of 80 nmol KE108; mean ± sd, n = 4
Description: as §2

[6] = biological target: T1, hSST2R (Homo sapiens, UniProt P30874); assay: Immunofluorescence microscopy-based internalization assay in HEK293-hSST2R cells; type: cell-based; conditions: 1 µM, 30 min at 37 °C
T1 construct: expressed in transfected cells
Description: Figure 3 Agonist stimulated hSST2R-internalization in HEK293-hSST2R cells determined by immunofluorescence microscopy.
An immunofluorescence microscopy-based internalization assay for hSST2R was performed in HEK293-hSST2R cells, grown on poly-DLys (20 μg/mL) (Sigma-Aldrich, St. Louis, MO, USA) coated 35-mm four-well plates (Cellstar, Greiner Bio-One GmbH, Frickenhausen, Germany). […] HEK293-hSST2R cells treated with vehicle alone were used as a negative control. The cells were then rinsed twice with PS (100 mM phosphate buffer containing 0.15 M sucrose), fixed and permeabilized for 7 min with cold methanol (−20 °C), rinsed twice with PS, and then blocked for 60 min at room temperature with PS containing 0.1% BSA. Next, cells were incubated for 60 min at room temperature with the hSST2R-specific primary antibody R2-88 (provided by Dr. A. Schönbrunn, Houston, TX, USA) diluted 1:1000 in PS and washed 3 × 5 min with PS containing 0.1% BSA. The cells were incubated for 60 min at room temperature in the dark with the secondary antibody Alexa Fluor 488 goat anti-rabbit IgG (H+ L) (Molecular Probes, Inc., Eugene, OR, USA) diluted in PS (1:600), washed 3 × 5 min with PS containing 0.1% BSA, embedded with PS/glycerol 1:1, and covered with a glass cover slip. The cells were imaged using a Leica DM RB immunofluorescence microscope (Leica, Deerfield, IL, USA) and an Olympus DP10 camera (Olympus Corporation, Shinjuku, Tokyo, Japan).

[7] = AR4-2J tumor, 10 pmol total peptide
[8] = pancreas, 10 pmol total peptide

T1 sequence (P30874 whole entry): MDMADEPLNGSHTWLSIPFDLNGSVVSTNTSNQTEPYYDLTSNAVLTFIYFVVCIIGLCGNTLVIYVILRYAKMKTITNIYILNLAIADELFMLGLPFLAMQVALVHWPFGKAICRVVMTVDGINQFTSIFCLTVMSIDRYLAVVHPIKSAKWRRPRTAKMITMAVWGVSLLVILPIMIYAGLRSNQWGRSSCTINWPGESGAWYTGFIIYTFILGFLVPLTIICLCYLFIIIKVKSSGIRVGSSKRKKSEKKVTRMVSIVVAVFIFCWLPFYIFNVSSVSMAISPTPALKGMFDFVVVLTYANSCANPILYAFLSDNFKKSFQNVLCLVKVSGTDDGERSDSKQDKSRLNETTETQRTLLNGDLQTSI

For `C[C@H](NC(=O)CN1CCN(CC(=O)O)CCN(CC(=O)O)CCN(CC(=O)O)CC1)C(=O)NCC(=O)N[C@H]1CSSC[C@@H](C(=O)O)NC(=O)[C@H](CO)NC(=O)[C@H]([C@@H](C)O)NC(=O)[C@@H]2CSSC[C@H](NC(=O)[C@H](CC(N)=O)NC(=O)[C@H](CCCCN)NC1=O)C(=O)N[C@@H](Cc1ccccc1)C(=O)N[C@H](Cc1c[nH]c3ccccc13)C(=O)N[C@@H](CCCCN)C(=O)N[C@@H]([C@@H](C)O)C(=O)N2` [[^111In]In-AT5S, metal not drawn] ({DOTA}-AGCKNCF[dW]KTCTSC-OH; disulfide 3-14, 6-11), the “% intact radioligand in peripheral blood” value [1] was > 96%.

In the case of `C[C@H](NC(=O)CN1CCN(CC(=O)O)CCN(CC(=O)O)CCN(CC(=O)O)CC1)C(=O)NCC(=O)N[C@H]1CSSC[C@@H](C(=O)O)NC(=O)[C@H](CO)NC(=O)[C@@H]2CSSC[C@H](NC(=O)[C@H](CCCCN)NC1=O)C(=O)N[C@@H](Cc1ccccc1)C(=O)N[C@@H](Cc1ccccc1)C(=O)N[C@H](Cc1c[nH]c3ccccc13)C(=O)N[C@@H](CCCCN)C(=O)N[C@@H]([C@@H](C)O)C(=O)N[C@@H](Cc1ccccc1)C(=O)N2` [[^111In]In-AT6S, metal not drawn] ({DOTA}-AGCKCFF[dW]KTFCSC-OH; disulfide 3-14, 5-12), the “% intact radioligand in peripheral blood” value [1] is reported as > 98% and > 96%, the tissue uptake at 4 h [2, 7] is reported as 1.9 ± 0.1 %ID/g and the tissue uptake at 24 h [2, 7] is reported as 0.8 ± 0.1 %ID/g. The tissue uptake at 4 h ([2]; blood, 10 pmol total peptide) was 0.3 ± 0.01 %ID/g, the tissue uptake at 24 h ([2]; blood, 10 pmol total peptide) was 0.07 %ID/g and the tissue uptake at 24 h ([2]; femur, 10 pmol total peptide) was 0.6 ± 0.1 %ID/g. The tissue uptake at 4 h ([2]; heart, 10 pmol total peptide) was 0.5 ± 0.05 %ID/g, the tissue uptake at 24 h ([2]; heart, 10 pmol total peptide) was 0.3 ± 0.06 %ID/g and the tissue uptake at 4 h ([2]; heart, with TATE 100 nmol co-injected (in vivo SST2R blockade)) was 0.7 ± 0.1 %ID/g. For the same compound, the tissue uptake at 24 h ([2]; intestines, 10 pmol total peptide) was 0.6 ± 0.08 %ID/g, the tissue uptake at 24 h ([2]; kidneys, 10 pmol total peptide) was 34.1 ± 3.9 %ID/g and the tissue uptake at 4 h ([2]; kidneys, with TATE 100 nmol co-injected (in vivo SST2R blockade)) was 49.5 ± 10.5 %ID/g. For the same compound, the tissue uptake at 4 h ([2]; liver, 10 pmol total peptide) was 16.6 ± 1.5 %ID/g, the tissue uptake at 24 h ([2]; liver, 10 pmol total peptide) was 12.1 ± 2.4 %ID/g and the tissue uptake at 24 h ([2]; muscle, 10 pmol total peptide) was 0.1 ± 0.03 %ID/g. It also gave a tissue uptake at 4 h [2, 8] of 0.5 ± 0.1 %ID/g, a tissue uptake at 24 h [2, 8] of 0.4 ± 0.07 %ID/g and a tissue uptake at 24 h ([2]; spleen, 10 pmol total peptide) of 6 ± 1.1 %ID/g. For the same compound, the tissue uptake at 4 h ([2]; stomach, 10 pmol total peptide) was 0.8 ± 0.04 %ID/g, the tissue uptake at 24 h ([2]; stomach, 10 pmol total peptide) was 0.3 ± 0.03 %ID/g and the tissue uptake at 4 h ([2]; stomach, with TATE 100 nmol co-injected (in vivo SST2R blockade)) was 0.5 ± 0.2 %ID/g. For the same compound, the Tumor uptake [3] was 0.8 ± 0.05 %IA/g, the tissue uptake at 4 h ([4]; HEK293-hSST3R tumor, 10 pmol total peptide) was 3.7 ± 0.4 %ID/g and the tissue uptake at 4 h ([4]; blood, 10 pmol total peptide) was 0.3 ± 0.02 %ID/g. The tissue uptake at 4 h ([4]; heart, 10 pmol total peptide) was 0.5 ± 0.05 %ID/g, the tissue uptake at 4 h ([4]; heart, with KE108 80 nmol co-injected (in vivo SST3R blockade)) was 0.1 %ID/g and the tissue uptake at 4 h ([4]; kidneys, with KE108 80 nmol co-injected (in vivo SST3R blockade)) was 26.8 ± 5.4 %ID/g. It also gave a tissue uptake at 4 h ([4]; liver, 10 pmol total peptide) of 16.6 ± 1.5 %ID/g, a tissue uptake at 4 h [4, 8] of 0.5 ± 0.04 %ID/g and a tissue uptake at 4 h ([4]; stomach, 10 pmol total peptide) of 0.8 ± 0.05 %ID/g. It also gave a tissue uptake at 4 h ([4]; stomach, with KE108 80 nmol co-injected (in vivo SST3R blockade)) of 0.1 ± 0.04 %ID/g and a Tumor uptake [5] of 0.3 ± 0.05 %IA/g.

In the case of “DOTA-Ala^1-Gly^2-c[Cys^3-Lys^4-Asn^5-Phe^6-Phe^7-Trp^8-Lys^9-Thr^10-Phe^11-Thr^12-Ser^13-Cys^14-OH] [AT1S, reference compound]”, the “ligand-induced hSST2R internalization (agonism)” value [6] is reported as “clearly able to trigger the internalization of hSST2R”.
